According to patent US20150344570A1 (published 2015):
Where a chain is given by its changes, count along the chain named. Numbers in names are those of the source.

T1: FcgRIIa R type extracellular domain, C-terminal His tag (human, UniProt P12318 34-217)
T1 construct: extracellular domain; Soluble analyte in Biacore; also called FcγRIIa R; FcγRIIa(R); not shown: His tag at the C terminus
T1 sequence (looked up): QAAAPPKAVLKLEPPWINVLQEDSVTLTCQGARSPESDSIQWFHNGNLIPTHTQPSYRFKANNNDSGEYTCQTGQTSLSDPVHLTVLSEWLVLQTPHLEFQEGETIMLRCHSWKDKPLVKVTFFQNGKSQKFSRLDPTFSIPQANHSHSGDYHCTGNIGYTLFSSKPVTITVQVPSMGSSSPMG

T2: FcgRIIa H type extracellular domain, C-terminal His tag (human, UniProt P12318 34-217)
T2 construct: extracellular domain; Soluble analyte in Biacore; also called FcγRIIa H; FcγRIIa(H); not shown: His tag at the C terminus
T2 sequence (looked up): T1 sequence (looked up) with R134H

T3: FcgRIIb extracellular domain, C-terminal His tag (human, UniProt P31994 43-217)
T3 construct: extracellular domain; Soluble analyte in Biacore; also called FcγRIIb; not shown: His tag at the C terminus
T3 sequence (looked up): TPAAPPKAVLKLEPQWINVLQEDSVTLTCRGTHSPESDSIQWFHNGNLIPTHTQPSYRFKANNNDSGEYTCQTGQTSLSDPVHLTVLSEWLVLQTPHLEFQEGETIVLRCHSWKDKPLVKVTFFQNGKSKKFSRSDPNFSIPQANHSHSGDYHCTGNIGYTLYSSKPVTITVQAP

B1: GpH7-A48/GpH7-B3-01-15Y/GpL16-k0 (antibody, human IgG1, kappa)
heavy 1: QVQLVQSGAEVKKPGASVTVSCKASGYTFTDYEMHWIRQPPGEGLEWIGAIDPKTGDTAYSESFQDRVTLTADKSTSTAYMELSSLTSEDTAVYYCTRFYSYTYWGQGTLVTVSSASTKGPSVFPLAPSSKSTSGGTAALGCLVKDYFPEPVTVSWNSGALTSGVHTFPAVLQSSGLYSLSSVVTVPSSSLGTQTYICNVNHKPSNTKVDKKVEPKSCDKTHTCPPCPAPELLGGPSVFLFPPKPKDTLMISRTPEVTCVVVDVSHEDPEVKFNWYVDGVEVHNAKTKPREEQYNSTYRVVSVLTVLHQDWLNGKEYKCKVSNKALRAPIEKTISKAKGQPREPQVYTLPPSRKELTKNQVSLTCLVKGFYPSDIAVEWESNGQPENNYKTTPPVLDSDGSFFLYSKLTVDKSRWQQGNVFSCSVMHEALHNRYTQKSLSLSP
heavy 2: not shown
light: DIVMTQSPLSLPVTPGEPASISCQASESLVHSNRNTYLHWYLQKPGQSPQLLIYKVSNRFSGVPDRFSGSGSGTDFTLKISRVEAEDVGVYYCSQNTHVPPTFGQGTKVEIERTVAAPSVFIFPPSDEQLKSGTASVVCLLNNFYPREAKVQWKVDNALQSGNSQESVTEQDSKDSTYSLSSTLTLSKADYEKHKVYACEVTHQGLSSPVTKSFNRGEC
notes: H1 P329R; H2 L234Y
B2: GpH7-A5/GpH7-HA5/GpL16-k0 (antibody, human IgG1, kappa)
heavy 1: not shown
heavy 2: B1 heavy 1 with L232Y, K354D, R433H, K437E
light: B1 light
notes: H2 L234Y and P329R
B3: H240-Kn120/H240-Hl068/L73-k0 (antibody, human IgG1, kappa)
heavy 1: QDQLVQSGAEVKKPGASVKVSCKASGFNIKDTYIQWVRQAPGQGLEWMGRIDPLRKQTKYREKFEGRVTITADTSTNTAYMELSSLRSEDTAVYYCVRSGREFDYWGQGTLVTVSSASTKGPSVFPLAPSSKSTSGGTAALGCLVKDYFPEPVTVSWNSGALTSGVHTFPAVLQSSGLYSLSSVVTVPSSSLGTQTYICNVNHKPSNTKVDKKVEPKSCDKTHTCPPCPAPEYYWGPMVFLFPPKPKDTLMISRTPEVTCVVVDVSDEDPEVKFNWYVDGVEVHNAKTKPREEQYNATYRVVSVLTVLHQDWLNGKEYKCKVSNKDLPAPIEKTISKAKGQPREPQVCTLPPSRDELTKNQVSLWCLVKGFYPSDIAVEWESNGQPENNYKTTPPVLDSDGSFFLYSKLTVDKSRWQQGNVFSCSVMHEALHNHYTQKSLSLSP
heavy 2: QDQLVQSGAEVKKPGASVKVSCKASGFNIKDTYIQWVRQAPGQGLEWMGRIDPLRKQTKYREKFEGRVTITADTSTNTAYMELSSLRSEDTAVYYCVRSGREFDYWGQGTLVTVSSASTKGPSVFPLAPSSKSTSGGTAALGCLVKDYFPEPVTVSWNSGALTSGVHTFPAVLQSSGLYSLSSVVTVPSSSLGTQTYICNVNHKPSNTKVDKKVEPKSCDKTHTCPPCPAPELLGGPSVFLFPPKPKDTLMISRTPEVTCVVVDVSHEEPEVKFNWYVDGVEVHNAKTKPREEQYNSTYRVVSVLTVLHQDWLNGKEYKCKVSNDALPKPIEETISKAKGQPREPQVYTLPPSRCELTKNQVSLSCAVKGFYPSDIAVEWESNGQPENNYKTTPPVLDSDGSFFLVSKLTVDKSRWQQGNVFSCSVMHEALHNHYTQKSLSLSP
light: DIQMTQSPSSLSASVGDRVTITCRASQDIHKYIAWYQQKPGQAPRLLIQYTSTLQPGVPSRFSGSGSGTDYTFTISSLQPEDIATYYCLQYEQLRTFGGGTKVEIKRTVAAPSVFIFPPSDEQLKSGTASVVCLLNNFYPREAKVQWKVDNALQSGNSQESVTEQDSKDSTYSLSSTLTLSKADYEKHKVYACEVTHQGLSSPVTKSFNRGEC
notes: Heterodimerized (knobs-into-holes) anti-epiregulin IgG1 antibody; also called H240-Kn120/H240-HI068/L73-k0
B4: H240-Kn180/H240-Hl068/L73-k0 (antibody, human IgG1, kappa)
heavy 1: B3 heavy 1 with E293R
heavy 2: B3 heavy 2
light: B3 light
notes: also called H240-Kn180/H240-HI068/L73-k0
B5: H240-Kn120/H240-Hl089/L73-k0 (antibody, human IgG1, kappa)
heavy 1: B3 heavy 1
heavy 2: B3 heavy 2 with G235T
light: B3 light
notes: also called H240-Kn120/H240-HI089/L73-k0
B6: H240-Kn179/H240-Hl068/L73-k0 (antibody, human IgG1, kappa)
heavy 1: B3 heavy 1 with E293K
heavy 2: B3 heavy 2
light: B3 light
notes: also called H240-Kn179/H240-HI068/L73-k0
B7: H240-Kn120/H240-Hl085/L73-k0 (antibody, human IgG1, kappa)
heavy 1: B3 heavy 1
heavy 2: B3 heavy 2 with G235V
light: B3 light
notes: also called H240-Kn120/H240-HI085/L73-k0
B8: H240-Kn120/H240-Hl086/L73-k0 (antibody, human IgG1, kappa)
heavy 1: B3 heavy 1
heavy 2: B3 heavy 2 with G235I
light: B3 light
notes: also called H240-Kn120/H240-HI086/L73-k0
B9: H240-Kn120/H240-Hl073/L73-k0 (antibody, human IgG1, kappa)
heavy 1: B3 heavy 1
heavy 2: B3 heavy 2 with G235S
light: B3 light
notes: also called H240-Kn120/H240-HI073/L73-k0

target: FcγRIIIa extracellular domain with C-terminal His tag (human, UniProt P08637 17-208); assay: SPR (Biacore), relative binding activity; GpH7-A5/GpH7-B3/GpL16-k0 = 100
Sequence (P08637 17-208): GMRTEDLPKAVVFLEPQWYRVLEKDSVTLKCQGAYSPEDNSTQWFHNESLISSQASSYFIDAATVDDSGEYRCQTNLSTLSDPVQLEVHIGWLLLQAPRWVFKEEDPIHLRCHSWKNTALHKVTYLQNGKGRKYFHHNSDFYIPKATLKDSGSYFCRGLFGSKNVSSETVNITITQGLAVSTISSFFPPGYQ

FcγRIIIa BINDING ACTIVITY [%] | Binder
11 | B1
60 | B2

target: T1, FcgRIIa R type extracellular domain, …; assay: SPR (Biacore); KD of H240-Kn120/H240-Hl068/L73-k0 divided by KD of the variant
Experimental: (§1) Analysis of interaction between objective antibody and the FcγR was carried out using Biacore T100 (GE Healthcare), Biacore T200, Biacore A100, and Biacore 4000. HBS-EP+ (GE Healthcare) was used as the running buffer, and the measurement temperature was set to 25° C. Chips produced by immobilizing the antigen peptide by the amine coupling method to a Series S sensor Chip CM5 (GE Healthcare), chips produced by allowing preliminarily biotinylated antigen peptides to interact with and immobilize onto a Series S Sensor Chip SA (certified) (GE Healthcare), chips produced by immobilizing Protein L (ACTIGEN, BioVision) to Series S Sencor Chip CM5 (GE Healthcare), or chips produced by immobilizing Protein A/G (Thermo Scientific) to Series S Sencor Chip CM5 (GE Healthcare) were used. Antibodies of interest were captured onto these chips, and allowed to interact to each FcγR diluted with running buffer. To regenerate and repeatedly use the chip, the antibodies captured onto the chip were washed off by reacting 10 mM glycine-HCl, pH 1.5.

relative KD | Binder
1 | B3
1 | B4
1.4 | B5
0.8 | B6
1.1 | B7
0.9 | B8
1.3 | B9

target: T2, FcgRIIa H type extracellular domain, …; assay: as above
Experimental: as §1

relative KD | Binder
1 | B3
1.2 | B4
1 | B5
1 | B6
0.9 | B7
0.8 | B8
2 | B9

target: T3, FcgRIIb extracellular domain, …; assay: as above
Experimental: as §1

relative KD | Binder
1 | B3
0.6 | B4
0.8 | B5
0.6 | B6
0.4 | B7
0.3 | B8
0.7 | B9

target: T4, FcgRIIIa F type extracellular domain, C-terminal His tag (human, UniProt P08637 17-208); assay: as above
T4 construct: extracellular domain; Soluble analyte in Biacore; also called FcγRIIIa F; not shown: His tag at the C terminus
Experimental: as §1

T4 sequence (P08637 17-208): as above

relative KD | Binder
1 | B3
0.7 | B4
0.2 | B5
0.5 | B6
0.1 | B7
0.1 | B8
0.3 | B9

target: T5, FcgRIIIa V type extracellular domain, C-terminal His tag (human, UniProt P08637 17-208); assay: as above
T5 construct: extracellular domain; Soluble analyte in Biacore; also called FcγRIIIa V; not shown: His tag at the C terminus
Experimental: as §1

T5 sequence (P08637 17-208 F176V): as the sequence (P08637 17-208) above, with F160V counted along it

relative KD | Binder
1 | B3
0.5 | B4
0.1 | B5
0.4 | B6
0.1 | B7
0 | B8
0.2 | B9

target: T1, FcgRIIa R type extracellular domain, …; assay: as above; remark: another data set of the same source
Experimental: (§2) H240-Kn179/H240-H1089/L73-k0, H240-Kn180/H240-Hl089/L73-k0, H240-Kn192/H240-Hl204/L73-k0, and H240-Kn193/H240-Hl204/L73-k0 were prepared by combining each of H240-Kn192 and H240-Kn193 as an H chain, L73-k0 as the L chain, and H240-Hl089 and H240-Hl204 as the other H chain according to the method described in Reference Example 1. The variants described above were assessed for their binding to FcγR according to the method described in Reference Example 8.
as §1

relative KD | Binder
1 | B3
1 | B4
1.4 | B5
0.8 | B6

target: T2, FcgRIIa H type extracellular domain, …; assay: as above; remark: another data set of the same source
Experimental: as §2, §1

relative KD | Binder
1 | B3
1.2 | B4
1 | B5
1 | B6

target: T3, FcgRIIb extracellular domain, …; assay: as above; remark: another data set of the same source
Experimental: as §2, §1

relative KD | Binder
1 | B3
0.6 | B4
0.8 | B5
0.6 | B6

target: T4, FcgRIIIa F type extracellular domain, …; assay: as above; remark: another data set of the same source
Experimental: as §2, §1

relative KD | Binder
1 | B3
0.7 | B4
0.2 | B5
0.5 | B6

target: T5, FcgRIIIa V type extracellular domain, …; assay: as above; remark: another data set of the same source
Experimental: as §2, §1

relative KD | Binder
1 | B3
0.5 | B4
0.1 | B5
0.4 | B6
